From patent US20190144507A1 (GlaxoSmithKline, published 2019)

Target: T1, VZV gH (VZV (strain ), UniProt Q775J3 18-841)
T1 sequence: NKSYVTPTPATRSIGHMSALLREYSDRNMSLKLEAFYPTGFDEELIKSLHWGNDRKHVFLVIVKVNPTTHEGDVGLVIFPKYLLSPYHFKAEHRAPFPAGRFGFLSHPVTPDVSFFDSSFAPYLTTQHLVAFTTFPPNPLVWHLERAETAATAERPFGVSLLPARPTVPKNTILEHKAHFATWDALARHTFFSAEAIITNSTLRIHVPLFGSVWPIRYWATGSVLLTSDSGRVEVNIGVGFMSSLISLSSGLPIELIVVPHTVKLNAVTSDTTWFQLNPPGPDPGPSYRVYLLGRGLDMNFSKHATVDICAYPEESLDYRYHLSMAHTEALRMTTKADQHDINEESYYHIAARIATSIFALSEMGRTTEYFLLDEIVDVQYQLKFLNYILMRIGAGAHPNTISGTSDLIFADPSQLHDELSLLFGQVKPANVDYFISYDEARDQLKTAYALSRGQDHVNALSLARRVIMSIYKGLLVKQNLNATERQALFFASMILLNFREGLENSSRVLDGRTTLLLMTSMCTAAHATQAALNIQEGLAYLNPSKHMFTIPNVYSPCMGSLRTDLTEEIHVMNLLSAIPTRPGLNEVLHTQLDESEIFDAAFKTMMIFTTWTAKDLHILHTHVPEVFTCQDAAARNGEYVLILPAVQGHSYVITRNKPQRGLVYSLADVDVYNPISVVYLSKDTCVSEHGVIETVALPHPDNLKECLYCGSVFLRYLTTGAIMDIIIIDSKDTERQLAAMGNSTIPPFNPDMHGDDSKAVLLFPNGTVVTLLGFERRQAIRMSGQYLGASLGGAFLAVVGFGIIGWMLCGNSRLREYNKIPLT
Test: immunofluorescence with antibody SG3 on transfected BHK-V cells

B1: VZV gL (other)
chain: LHLQDDTPLFFGAKPLSDVSLIITEPCVSSVYEAWDYAAPPVSNLSEALSGIVVKTKCPVPEVILWFKDKQMAYWTNPYVTLKGLTQSVGEEHKSGDIRDALLDALSGVWVDSTPSSTNIPENGCVWGADRLFQRVCQ
binding result: binds
